Target: T1, FZD8 binding to Wnt3A (Homo sapiens, UniProt Q9H461)
T1 construct: amino acids 1-157 of FZD8 linked in-frame to human IgG1 Fc
T1 sequence (Q9H461 28-157): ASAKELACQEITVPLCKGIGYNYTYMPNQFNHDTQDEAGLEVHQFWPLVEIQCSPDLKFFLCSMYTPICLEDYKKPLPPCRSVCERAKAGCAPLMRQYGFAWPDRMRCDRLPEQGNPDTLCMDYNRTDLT
Assay: Blocking of FZD8-Fc binding to Wnt3A (protein A depletion, STF293 reporter readout)
Type: biochemical
Details: in the absence of 18R8
Method: To assess the ability of 18R8 to block the binding of FZD to Wnt, 2 μl of 1.32 μg/μl soluble FZD8-Fc containing the Fri domain (amino acids 1-157 of FZD8 linked in-frame to human IgG1 Fc) was added to culture medium to bind Wnt3A (added as 20 μl of Wnt3A conditioned medium) either alone or in the presence of the 18R8 IgG antibody (added as 4 μl of 3.71 μg/μl). The mixtures were incubated either alone or in the presence of Protein A sepharose beads (GE Healthcare products; 20 μl of 50% solution in PBS) for two hrs at 4° C. After the incubation, the protein A beads (and any proteins complexed to the protein A beads) in each sample were removed by spinning and the supernatant was assayed for ability to induce 8×TCF luciferase activity. The supernatant was added to STF293 cells, which stably express 8×TCF (eight copies of the TCF-binding domain upstream of a firefly luciferase reporter gene) to measure canonical Wnt signaling levels and which were cultured in DMEM supplemented with antibiotics and 10% FCS. Eighteen hours following treatment of the STF293 cells, luciferase levels were measured using a dual luciferase assay kit (Promega; Madison, Wis.).

B1: Fzd8-Fc: soluble FZD8-Fc containing the Fri domain (amino acids 1-157 of FZD8 linked in-frame to human IgG1 Fc) (protein)
chain: ASAKELACQEITVPLCKGIGYNYTYMPNQFNHDTQDEAGLEVHQFWPLVEIQCSPDLKFFLCSMYTPICLEDYKKPLPPCRSVCERAKAGCAPLMRQYGFAWPDRMRCDRLPEQGNPDTLCMDYNRTDLT
modifications: left off: a dimerising Fc or GST
effect on Wnt3A-stimulated signaling: inhibit the ability of Wnt3A to stimulate signaling
